# Reference: publication PMC10234635
# Target: recombinant mouse CD47 antigen (mouse) (UniProt Q61735)
# Assay: SPR
# Sequence of UniProt Q61735 (Q61735 19-303): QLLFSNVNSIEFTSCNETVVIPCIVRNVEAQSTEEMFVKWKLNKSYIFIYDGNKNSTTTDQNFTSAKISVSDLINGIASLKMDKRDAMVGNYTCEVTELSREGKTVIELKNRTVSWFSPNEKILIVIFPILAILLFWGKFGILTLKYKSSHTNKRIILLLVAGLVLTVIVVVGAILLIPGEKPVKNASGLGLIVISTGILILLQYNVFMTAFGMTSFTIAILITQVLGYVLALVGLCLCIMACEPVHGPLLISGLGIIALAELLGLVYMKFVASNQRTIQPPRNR
binder,measurement,value
"anti–CTLA-4×SIRPα heterodimer (bispecific antibody, V domains shown) VH: QVKLEESGPGLVNPSQSLSLSCSVTGYSITSGYGWNWIRQFPGQKVEWMGFIYYEGSTYYNPSIKSRISITRDTSKNQFFLQVNSVTTEDTATYYCARQTGYFDYWGQGTMVTVSS VL: DVMMTQSPSSMSVSAGEKATISCKSSQSLFNSNAKTNYLNWYMQKPGQSPKLLTYYASTRHTGVPDRFRGSGSGTDFTLTISSVQDEDQAFYYCQQWYDYPYTFGAGTKLEIK",fold lower affinity than its affinity to CTLA-4,10 fold
same,fold reduction in affinity against SIRPα-Fc,5 fold
